This experiment has as its target microtubules polymerized from porcine tubulin (porcine, UniProt P02550 1-451; Q767L7 1-444, Alexa Fluor 647 NHS ester on 20% of the tubulin in fluorescently labeled microtubules | Alexa Fluor 647 NHS ester on 20% of the tubulin in fluorescently labeled microtubules). Kind of experiment: single-molecule TIRF microscopy, two-colour co-movement on immobilised microtubules; KIF5B construct and 175 nM TRAK1 construct pre-incubated 10 min on ice, flushed onto bare immobilised microtubules in motility buffer with 1 mM Mg-ATP; room temperature; for the complexes traces of the mCherry-TRAK1 channel analysed. Conditions: both partners purified.

B1: KIF5B-GFP-mCherry-TRAK1∆ complex (complex)
chain 1: MADLAECNIKVMCRFRPLNESEVNRGDKYIAKFQGEDTVVIASKPYAFDRVFQSSTSQEQVYNDCAKKIVKDVLEGYNGTIFAYGQTSSGKTHTMEGKLHDPEGMGIIPRIVQDIFNYIYSMDENLEFHIKVSYFEIYLDKIRDLLDVSKTNLSVHEDKNRVPYVKGCTERFVCSPDEVMDTIDEGKSNRHVAVTNMNEHSSRSHSIFLINVKQENTQTEQKLSGKLYLVDLAGSEKVSKTGAEGAVLDEAKNINKSLSALGNVISALAEGSTYVPYRDSKMTRILQDSLGGNCRTTIVICCSPSSYNESETKSTLLFGQRAKTIKNTVCVNVELTAEQWKKKYEKEKEKNKILRNTIQWLENELNRWRNGETVPIDEQFDKEKANLEAFTVDKDITLTNDKPATAIGVIGNFTDAERRKCEEEIAKLYKQLDDKDEEINQQSQLVEKLKTQMLDQEELLASTRRDQDNMQAELNRLQAENDASKEEVKEVLQALEELAVNYDQKSQEVEDKTKEYELLSDELNQKSATLASIDAELQKLKEMTNHQKKRAAEMMASLLKDLAEIGIAVGNNDVKQPEGTGMIDEEFTVARLYISKMKSEVKTMVKRCKQLESTQTESNKKMEENEKELAACQLRISQHEAKIKSLTEYLQNVEQKKRQLEESVDALSEELVQLRAQEKVHEMEKEHLNKVQTANEVKQAVEQQIQSHRETHQKQISSLRDEVEAKAKLITDLQDQNQKMMLEQERLRVEHEKLKATDQEKSRKLHELTVMQDRREQARQDLKGLEETVAKELQTLHNLRKLFVQDLATRVKKSAEIDSDDTGGSAAQKQKISFLENNLEQLTKVHKQLVRDNADLRCELPKLEKRLRATAERVKALESALKEAKENASRDRKRYQQEVDRIKEAVRSKNMARRGHSAQIAKPIRPGQHPAASPTHPSAIRGGGAFVQNSQPVAVRGGGGKQV
chain 2: MALVFQFGQPVRAQPLPGLCHGKLIRTNACDVCNSTDLPEVEIISLLEEQLPHYKLRADTIYGYDHDDWLHTPLISPDANIDLTTEQIEETLKYFLLCAERVGQMTKTYNDIDAVTRLLEEKERDLELAARIGQSLLKKNKTLTERNELLEEQVEHIREEVSQLRHELSMKDELLQFYTSAAEESEPESVCSTPLKRNESSSSVQNYFHLDSLQKKLKDLEEENVVLRSEASQLKTETITYEEKEQQLVNDCVKELRDANVQIASISEELAKKTEDAARQQEEITHLLSQIVDLQKKAKACAVENEELVQHLGAAKDAQRQLTAELRELEDKYAECMEMLHEAQEELKNLRNKTMPNTTSRRYHSLGLFPMDSLAAEIEGTMRKELQLEEAESPDITHQKRVFETVRNINQVVKQRSLTPSPMNIPGSNQSSAMNSLLSSCVSTPRSSFYGSDIGNVVLDNKTNSIILETEAADLGNDERSKKPGTPGTPGSHDLETALRRLSLRRENYLSERRFFEEEQERKLQELAEKGELRSGSLTPTESIMSLGTHSRFSEFTGFSGMSFSSRSYLPEKLQIVKPLEGSATLHHWQQLAQPHLGGILDPRPGVVTKGFRTLDVDLDEVYCLNDFEEDDTGD
notes: KIF5B, kinesin-1 heavy chain, human, amino acids 1-963; as m1; TRAK1, stop codon after amino acid 635; as m6; also called truncated KIF5B-GFP-mCherry-TRAK1∆ complex; source: the two purified proteins (m1 from SF9, m6 from HEK293T) pre-incubated 10 min on ice; not shown: GFP, C-terminal, kept; 6xHis, C-terminal, cleaved; mCherry, N-terminal, kept; TwinStrep-FLAG-Halo, N-terminal, cleaved
B1: the “median interaction time with microtubules” value (shortened to “median interaction time”) was determined as 5.33 s.

B2: KIF5B∆-GFP in complex with mCherry-TRAK1∆ (complex)
chain 1: MADLAECNIKVMCRFRPLNESEVNRGDKYIAKFQGEDTVVIASKPYAFDRVFQSSTSQEQVYNDCAKKIVKDVLEGYNGTIFAYGQTSSGKTHTMEGKLHDPEGMGIIPRIVQDIFNYIYSMDENLEFHIKVSYFEIYLDKIRDLLDVSKTNLSVHEDKNRVPYVKGCTERFVCSPDEVMDTIDEGKSNRHVAVTNMNEHSSRSHSIFLINVKQENTQTEQKLSGKLYLVDLAGSEKVSKTGAEGAVLDEAKNINKSLSALGNVISALAEGSTYVPYRDSKMTRILQDSLGGNCRTTIVICCSPSSYNESETKSTLLFGQRAKTIKNTVCVNVELTAEQWKKKYEKEKEKNKILRNTIQWLENELNRWRNGETVPIDEQFDKEKANLEAFTVDKDITLTNDKPATAIGVIGNFTDAERRKCEEEIAKLYKQLDDKDEEINQQSQLVEKLKTQMLDQEELLASTRRDQDNMQAELNRLQAENDASKEEVKEVLQALEELAVNYDQKSQEVEDKTKEYELLSDELNQKSATLASIDAELQKLKEMTNHQKKRAAEMMASLLKDLAEIGIAVGNNDVKQPEGTGMIDEEFTVARLYISKMKSEVKTMVKRCKQLESTQTESNKKMEENEKELAACQLRISQHEAKIKSLTEYLQNVEQKKRQLEESVDALSEELVQLRAQEKVHEMEKEHLNKVQTANEVKQAVEQQIQSHRETHQKQISSLRDEVEAKAKLITDLQDQNQKMMLEQERLRVEHEKLKATDQEKSRKLHELTVMQDRREQARQDLKGLEETVAKELQTLHNLRKLFVQDLATRVKKSAEIDSDDTGGSAAQKQKISFLENNLEQLTKVHKQLVRDNADLRCELPKLEKRLRATAERVKALESALKEAKENASRDRKRYQQEVDRIKEA
chain 2: MALVFQFGQPVRAQPLPGLCHGKLIRTNACDVCNSTDLPEVEIISLLEEQLPHYKLRADTIYGYDHDDWLHTPLISPDANIDLTTEQIEETLKYFLLCAERVGQMTKTYNDIDAVTRLLEEKERDLELAARIGQSLLKKNKTLTERNELLEEQVEHIREEVSQLRHELSMKDELLQFYTSAAEESEPESVCSTPLKRNESSSSVQNYFHLDSLQKKLKDLEEENVVLRSEASQLKTETITYEEKEQQLVNDCVKELRDANVQIASISEELAKKTEDAARQQEEITHLLSQIVDLQKKAKACAVENEELVQHLGAAKDAQRQLTAELRELEDKYAECMEMLHEAQEELKNLRNKTMPNTTSRRYHSLGLFPMDSLAAEIEGTMRKELQLEEAESPDITHQKRVFETVRNINQVVKQRSLTPSPMNIPGSNQSSAMNSLLSSCVSTPRSSFYGSDIGNVVLDNKTNSIILETEAADLGNDERSKKPGTPGTPGSHDLETALRRLSLRRENYLSERRFFEEEQERKLQELAEKGELRSGSLTPTESIMSLGTHSRFSEFTGFSGMSFSSRSYLPEKLQIVKPLEGSATLHHWQQLAQPHLGGILDPRPGVVTKGFRTLDVDLDEVYCLNDFEEDDTGD
notes: KIF5B, kinesin-1 heavy chain, human, amino acids 1-905; as m2; TRAK1, stop codon after amino acid 635; as m6; source: the two purified proteins (m2 from SF9, m6 from HEK293T) pre-incubated 10 min on ice; not shown: GFP, C-terminal, kept; 6xHis, C-terminal, cleaved; mCherry, N-terminal, kept; TwinStrep-FLAG-Halo, N-terminal, cleaved
Regarding B2, the “median interaction time” value is 2.22 s.

B3: KIF5B∆-GFP in complex with mCherry-TRAK1 (complex)
chain 1: MADLAECNIKVMCRFRPLNESEVNRGDKYIAKFQGEDTVVIASKPYAFDRVFQSSTSQEQVYNDCAKKIVKDVLEGYNGTIFAYGQTSSGKTHTMEGKLHDPEGMGIIPRIVQDIFNYIYSMDENLEFHIKVSYFEIYLDKIRDLLDVSKTNLSVHEDKNRVPYVKGCTERFVCSPDEVMDTIDEGKSNRHVAVTNMNEHSSRSHSIFLINVKQENTQTEQKLSGKLYLVDLAGSEKVSKTGAEGAVLDEAKNINKSLSALGNVISALAEGSTYVPYRDSKMTRILQDSLGGNCRTTIVICCSPSSYNESETKSTLLFGQRAKTIKNTVCVNVELTAEQWKKKYEKEKEKNKILRNTIQWLENELNRWRNGETVPIDEQFDKEKANLEAFTVDKDITLTNDKPATAIGVIGNFTDAERRKCEEEIAKLYKQLDDKDEEINQQSQLVEKLKTQMLDQEELLASTRRDQDNMQAELNRLQAENDASKEEVKEVLQALEELAVNYDQKSQEVEDKTKEYELLSDELNQKSATLASIDAELQKLKEMTNHQKKRAAEMMASLLKDLAEIGIAVGNNDVKQPEGTGMIDEEFTVARLYISKMKSEVKTMVKRCKQLESTQTESNKKMEENEKELAACQLRISQHEAKIKSLTEYLQNVEQKKRQLEESVDALSEELVQLRAQEKVHEMEKEHLNKVQTANEVKQAVEQQIQSHRETHQKQISSLRDEVEAKAKLITDLQDQNQKMMLEQERLRVEHEKLKATDQEKSRKLHELTVMQDRREQARQDLKGLEETVAKELQTLHNLRKLFVQDLATRVKKSAEIDSDDTGGSAAQKQKISFLENNLEQLTKVHKQLVRDNADLRCELPKLEKRLRATAERVKALESALKEAKENASRDRKRYQQEVDRIKEA
chain 2: MALVFQFGQPVRAQPLPGLCHGKLIRTNACDVCNSTDLPEVEIISLLEEQLPHYKLRADTIYGYDHDDWLHTPLISPDANIDLTTEQIEETLKYFLLCAERVGQMTKTYNDIDAVTRLLEEKERDLELAARIGQSLLKKNKTLTERNELLEEQVEHIREEVSQLRHELSMKDELLQFYTSAAEESEPESVCSTPLKRNESSSSVQNYFHLDSLQKKLKDLEEENVVLRSEASQLKTETITYEEKEQQLVNDCVKELRDANVQIASISEELAKKTEDAARQQEEITHLLSQIVDLQKKAKACAVENEELVQHLGAAKDAQRQLTAELRELEDKYAECMEMLHEAQEELKNLRNKTMPNTTSRRYHSLGLFPMDSLAAEIEGTMRKELQLEEAESPDITHQKRVFETVRNINQVVKQRSLTPSPMNIPGSNQSSAMNSLLSSCVSTPRSSFYGSDIGNVVLDNKTNSIILETEAADLGNDERSKKPGTPGTPGSHDLETALRRLSLRRENYLSERRFFEEEQERKLQELAEKGELRSGSLTPTESIMSLGTHSRFSEFTGFSGMSFSSRSYLPEKLQIVKPLEGSATLHHWQQLAQPHLGGILDPRPGVVTKGFRTLDVDLDEVYCLNDFEEDDTGDHISLPRLATSTPVQHPETSAHHPGKCMSQTNSTFTFTTCRILHPSDELTRVTPSLNSAPTPACGSTSHLKSTPVATPCTPRRLSLAESFTNTRESTTTMSTSLGLVWLLKERGISAAVYDPQSWDRAGRGSLLHSYTPKMAVIPSTPPNSPMQTPTSSPPSFEFKCTSPPYDNFLASKPASSILREVREKNVRSSESQTDVSVSNLNLVDKVRRFGVAKVVNSGRAHVPTLTEEQGPLLCGPPGPAPALVPRGLVPEGLPLRCPTVTSAIGGLQLNSGIRRNRSFPTMVGSSMQMKAPVTLTSGILMGAKLSKQTSLR
notes: KIF5B, kinesin-1 heavy chain, human, amino acids 1-905; as m2; TRAK1, cDNA KIAA1042; as m5; also called KIF5B∆-GFP-mCherry-TRAK1 complex; KIF5B∆-TRAK1 transport complex; source: the two purified proteins (m2 from SF9, m5 from HEK293T) pre-incubated 10 min on ice; not shown: GFP, C-terminal, kept; 6xHis, C-terminal, cleaved; mCherry, N-terminal, kept; TwinStrep-FLAG-Halo, N-terminal, cleaved; …
As to B3, the “median interaction time” value is 12.2 s.
